Experimental data reported in the DeepSol protein solubility set.

experiment: soluble on expression in E. coli; label from the status in PepcDB or PDB records

Soluble on expression in E. coli, not soluble:
MGSDKIHHHHHHMLEEGEHVLVAVSGGIDSMTLLYVLRKFSPLLKIKITAAHLDHRIRESSRRDREFVERICRQWNIPVETSEVDVPSLWKDSGKTLEEIAREVRYDFLKRTAKKVGASKIALAHHKNDLLETVVHRLIRGTGPLGLACISPKREEFIRPFLVFKRSEIEEYARKNNVPYVVDETNYNVKYTRNFIRHRIVPLMKELNPTVEDAVYRLVSVTHLLRNFVERTVQDFVERNVYFYKDYAVFVEPEDLFLFLEVTRWVLKEMYGRVPEYEKLIGTLKSKRVELWSGIFVERSFGYVAVGKTVFKKKYRVEVKGDMLEMEGFKIRVVNNRNDMKFWVRNRKEGDRIIVNGRERKLKDVFIEKKVPTFYRDRVPLLVDEEDRVLWVPGIARSDFLPEDVVVELLEYPVGYVKGGTYFEQV
MGSDKIHHHHHHMLFSVVDDRSGVAYQEYHCVYGEDAETALRFLFNSMAPKADPSFPFQGRPKLIYLDNGPVAKRRVFQSVMRALGIEWQTHIPASKDGTRTTARSKGKVERPFRTVKEAHETLYHFHKPETEAQANEWLLRYLVRTYNQQTHRAEPLSRIEDWITHVPTEGIREMCSWDQFCRFAREPERRKVGPDARITTDGTAYELEPEMAGDYVVLLWGLFDDELHAEFDGERFGPHYPVSGPIPQHRYRAFKRSKADERSARIRSLADQLGLPIAALSGEDVRLEPGSADSTLPIQPFVFEPQESRIAAKLAIAEELAMPLAKLSMDDRAFIDQVLSETLATD
MGSDKIHHHHHHMLGTLKKLRAHLDEAQQVQYQLVVGEELLPLNPLIGQPLTLTHTGNIFCCNCGKKTKKSYSQGHCFVCMQKLASCDMCIMKPETCHFDQGTCREPEWAQSHCFVPHYVYLSNTSGIKVGITRHTQLPSRWIDQGATQGLPIFKVATRQISGLVEVELAKLINDKTHWQAMLKGHADDIDLQAKAAELIPHIEAKLHEIGMQKGNYSIERLQENIQTIHYPIEVFPKKITSHNFDKEAVVSGILQGIKGQYLLFDTGVINIRKFTAYEVSVTLTG
MGSDKIHHHHHHMLKEFKEQRLKEIQELRSMGIEPYPYKFEKELTAREIREKYDYLQAGEVLESEKLSFAGRVMSIRHHGKTAFFHMKDDTGRIQAYIKADSVGKEKMDLFKRHVKIGDFVGVRGFPFKSKTGELTIYVQEYTLLSKALRPLPEKWHGIKDKEIIYRQRYLELIVNDEAIERFKKRFKAVRVIREFLNSRGFIEVETPILHYVTGGAEARPFVTHLNVFDIDMYLRIAPELYLKRLIVGGFEKIYEIGKNFRNEGISYKHSPEFTSIEIYQAYADYNDMMDLTEELIVEVVKRTCGTLKISYQGKEIDFTPPWKRVRMRDFLKEKLGVDILEDPDEVLLKKLEEHGVELEIKNRAHLIDKLRDLVEEELVNPTFIIDHPVVISPLAKRHREDPRLTERFELIIFGREIANAFSELNDPVDQYQRFLEQAKMREEGDEEAHMMDLDFVRALEYGMPPTGGLGIGLDRLFMFITDSPTIRDVIPFPIVKPKKFEEEEAEFEGGFEE
MGSDKIHHHHHHMLKENRSLDRGIEILETLAREGAMSLADLHRATGLPKSTLRRLLQTLIARKIVRRSLADKLYRTLVVFPDISGEVMPKGMLHISEAAIPRALALTKEIGWPSDIHIRETRAMRIIDNTRHASTFHVERGQINQRVSHFGSATGLACLAEMKDAEIATIYEAFKPDLQWGPVRFGLDLAGLMARIEQVRQVGYAERLSAPMSDPDWDTDLRAIAVAIKARGRVVGGLSVLWLRPYKPVEEFARLHLEALQTAAAEINATLDAVWEDAAT
MGSDKIHHHHHHMLKIELLESFIAVAECGNMSKAADKVCRTQSTLSLQIKKLEEVVGQSLLLRDNKGTTLTESGSTLLNYAYKMMQLNSQAIHDLKDCQNREIIRLGVPTDYIKFYLNSCLLEFIREFTCIELVIDTDVSGNLFKRLQQGEFDLIVATHWQAPVNGELLFSRRFHWAAAKNGQAHKRSTVPMALYPENCPIRAQVFANHQLSMRPINVLLSTPSPQALCMAVENDLAIAPIAEFRTNEHMQILDPHEHGLPPLPIFNESLYLNPETQTEATMQLITLIKANVEHLSDTID
MGSDKIHHHHHHMLKINMFSAADSVKGQGVGSAYNELMNLLKTHLNQEFDVSVNRYRRVDITHYHTINFSYYLSTFLPHRGRKIGYVHFLPETLEGSLKIPQPFRSIFYAYVLAFYRRMDHIVVVNPTFIPKLVAAGIPAERVTYIPNFVSRDEFYPVTVEQKQALRQQYGYATDRFTILGIGQIQERKGLFDFIKLARNNPSYQFIWAGGFSFGRMTDGYAELKKVVDNPPANLSFPGIVDRDKLVDYYNLADLFLLPSFNELFPMSVLEAFSTGTPVLLRDLDLYQAIIAGDYQPAKDYAEMDEQLHRLAADPQALAHWRQQSLAAADRYSEEHLTQIWREFYTQQAKER
MGSDKIHHHHHHMLKINQVKLTQVNLAQINTAKVNTIPAKVVHKMMKKVVITTLIAMNLMQVSFAADVVEKNETKVVAKPVKVAPVLNMPMAAKTELNATLYSRSHIPITASLNARVDYLVEPGDFVAQGDKLAGMDLLPIQLRQAEQKAQISRARINVAYIKNELSRLQALSKTQAVSQFKLDQMRSEHDLAAADLEIAQLKLAQINEQLSRAIITAPFAGIITERLIRVGSEVNRGDILLRLLDTEHLEARLYIPIKYLAFINKGDKLSMSASDQKTLAAVTAKIPRADPRSQTFEVRLNIPKAFNKHWAAGQLVSVSVPTQKATASLTVPRDALILRKSGSYVIKVNADNTVSRLAVVVGKGNKERVAITGSLKHGDNVAIRGAERLADGDKVVIQ
MGSDKIHHHHHHMLKSCPMNPRLDALHPYPFEKLRALLADAGKPTHDLPPINLSIGEPKHAAPACVGQAIAANLAGLSVYPSTKGEPALRQAISQWLSRRYSIPAPDPESEVLPVLGSREALFAFAQTVIDPSAGALVVCPNPFYQIYEGAALLAGATPYYVNADPARDFGCDWARVPDEVWRRTQLVFVCSPGNPAGNVMSLEEWRTLFELSDRHGFVIAADECYSEIYLDEDNPPLGSLQAARRLGRDRYTNLVAFSSLSKRSNVPGMRSGFVAGDAALLARFLLYRTYHGSAMSPVVSAASIAAWSDETHVQENRRQYRAKFEAVLPILQNVLDVRAPQASFYLWAGTPGSDTAFARELYGRTGVTVLPGSLLAREAHNANPGQGRIRIALVAPLDQCVQAAERIAHFARTSI
MGSDKIHHHHHHMLLFQDLRKDIYEIVSKRFRISENDVYLDDTGHSDITIRVFRILKSPDGGENAVMEIVRSISEKDYVEKALSEGGYINVWIKRTYMLREVLESIEKSGTYPDVFQEAERVSVEHTSANPTGPLHIGRARNSIIGDSIYRILSRYGYRTVRQYFVNDSGKQMISLYTAYIKYGGPITIENLLENYQKIYREMEKDQSIEKEIEKNIERYENADPEVFGTLRKIAGVMLDGIASTLKRIGIEFDEFDWESDLLLNGSVRKAIDMLETKEEDSARYIEISGKKVFLTRKDGTTLYFARDIAYHLFKAENSEWIIDVLGEDHKDHAKSLNHVLKEMLKLENRVSFMYYSFITLETGKMSTRRGNIVTLQDLVDRTYDEALKIVNEKRPDLSEEERKKIAEVIASSAVRYSIIRVSAPKPITFRWEEALNFESNSAPFIMYSHARAASILDKAPEPEQSYGMDMPKEEADLVKAMYVYPYYLKDAAQDLKPDLIAAYLISLVQKFNDFYGACRVIGTDPLTYARRIRIVKAYKQILSDAGDLIGIKMLDQM
MGSDKIHHHHHHMLLTPDDLKACEVELARRSLADFARMAWPVLEPATPLKWGWALDAICEHLEAVSRGESKRLLMNVPPGSMKSLLTGVIWPAYEWGPMDHAEMRFLGTAHKQDLAVRDNLKCRRLIQSQWYQERWPVVLTSDQNAKTKFENARTGFREAMAFESMTGSRGDRVILDDPHSVDDANSAAKLASGVTTFREALPSRVNNDQSAIVIVMQRLNEADVSAVAIDLGYDHLCIPMRYEPGRSKWVYGSGDPRKEEGELMFPERFPEEQVSELEKTMGSYAVAGQLQQRPAPRGGGIIKTAWFRSYRELPALEWRQIHADTAQKTGEENDYSVFQCWGRTTTGQAVLIDQIRGKWEAPDLLTQARAFWLKHKSIPGPVLRAMKVEDKVSGTGLIQTLRREGVAVIPVQRNKDKISRAYDAAAFIESGNVLLPEWADWLDGFTNEAATFPSGAHDDQLDPMFDAIHDVQFGMTVSAAVTRPIPRSVTAFNKR
